In patent US5656591:

Target: commercial lactoferrin just as isolated from cow's milk (cow (bovine)) (UniProt P24627)

hydrolyzing rate: 11.3%
Substance: commercial swine pepsin (from UniProt P00791) (enzyme)
